The values that follow come from article doi:10.1101/2023.02.13.525685.

Where only a bound is given, the exact number is not on record here.

Assay [1] addresses RjoGlgAb (GT4 glycosyltransferase GlgAb from Rhodococcus jostii RHA1) (Rhodococcus jostii RHA1). Briefly: SEC.
The target of assay [2] is RjoGlgAc (GT4 glycosyltransferase GlgAc from Rhodococcus jostii RHA1) (Rhodococcus jostii RHA1). Briefly: SEC. For orientation: In gel filtration, larger molecules generally elute earlier.

With “RjoGlgAb (GT4 glycosyltransferase GlgAb from Rhodococcus jostii RHA1) (enzyme)”, the stoichiometry N in assay [1] was over 15 subunits.

In turn, “RjoGlgAc (GT4 glycosyltransferase GlgAc from Rhodococcus jostii RHA1) (enzyme)” had a stoichiometry N in assay [2] of 2.

The term stoichiometry N denotes the number of molecules, sites or subunits per partner or assembly.
